B2: ClfAPWY (other)
chain: VAADAPAAGTDITNQLTNVTVGIDSGTTVYPHQAGYVKLNYGFSVPNSAVKGDTFKITVPKELNLNGVTSTAKVPPIMAGDQVLANGVIDSDGNVIYTFTDYVNTKDDVKATLTMPAYIDPENVKKTGNVTLATGIGSTTANKTVLVDYEKYGKFYNLSIKGTIDQIDKTNNTYRQTIYVNPSGDNVIAPVLTGNLKPNTDSNALIDQQNTSIKVYKVDNAADLSESYFVNPENFEDVTNSVNITFANPNQYKVEFNTPDDQITTPYIVVVNGHIDPNSKGDLALRSTLYGANSNIIARSMSWDNEVAFNNGSGSGDGIDKPVVPEQPDEPGEIEPIPE
notes: also called triple mutant
B4: Fg γ-peptide P16 (peptide)
peptide: GEGQQHHLGGAKQAGAV
notes: domain: γ-peptide; Position 410 probably counts on the mature γ-chain; also called P16 peptide; Fg-γ P16 peptide

Columns and labels:
[1] = target: T1, human fibrinogen (human, UniProt P02671 20-629; P02675 31-491; P02679 27-437); test: SPR; immobilized Fg against γ-peptide
T1 construct: also called Fg; intact Fg
T1 sequence 1: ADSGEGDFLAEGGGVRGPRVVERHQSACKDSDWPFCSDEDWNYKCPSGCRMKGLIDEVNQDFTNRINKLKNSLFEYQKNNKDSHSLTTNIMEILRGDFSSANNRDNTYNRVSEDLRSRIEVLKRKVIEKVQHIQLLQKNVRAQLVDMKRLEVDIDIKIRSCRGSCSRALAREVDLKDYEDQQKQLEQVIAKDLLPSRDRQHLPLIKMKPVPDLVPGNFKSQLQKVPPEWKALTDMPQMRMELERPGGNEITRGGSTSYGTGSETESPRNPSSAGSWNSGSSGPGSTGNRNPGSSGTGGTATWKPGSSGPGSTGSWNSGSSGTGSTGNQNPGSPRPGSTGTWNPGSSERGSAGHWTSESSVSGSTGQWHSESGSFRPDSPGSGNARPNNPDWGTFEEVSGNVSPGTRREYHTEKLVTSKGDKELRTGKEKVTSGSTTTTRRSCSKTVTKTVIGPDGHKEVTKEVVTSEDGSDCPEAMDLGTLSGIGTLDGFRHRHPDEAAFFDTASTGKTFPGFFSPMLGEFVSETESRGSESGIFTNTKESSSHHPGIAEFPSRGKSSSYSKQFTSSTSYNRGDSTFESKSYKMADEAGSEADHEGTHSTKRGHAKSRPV
T1 sequence 2: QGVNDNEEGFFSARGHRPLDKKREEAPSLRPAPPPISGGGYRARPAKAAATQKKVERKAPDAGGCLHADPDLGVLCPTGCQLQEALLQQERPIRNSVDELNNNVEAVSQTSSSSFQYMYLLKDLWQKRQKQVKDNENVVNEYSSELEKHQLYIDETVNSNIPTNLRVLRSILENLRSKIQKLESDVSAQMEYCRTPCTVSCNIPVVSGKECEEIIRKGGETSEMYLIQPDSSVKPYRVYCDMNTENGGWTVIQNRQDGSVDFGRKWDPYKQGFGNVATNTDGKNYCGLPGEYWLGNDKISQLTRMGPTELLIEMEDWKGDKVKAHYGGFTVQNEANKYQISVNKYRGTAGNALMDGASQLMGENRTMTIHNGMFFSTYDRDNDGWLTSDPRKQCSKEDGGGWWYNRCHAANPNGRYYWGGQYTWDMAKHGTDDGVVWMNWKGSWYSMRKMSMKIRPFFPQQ
T1 sequence 3: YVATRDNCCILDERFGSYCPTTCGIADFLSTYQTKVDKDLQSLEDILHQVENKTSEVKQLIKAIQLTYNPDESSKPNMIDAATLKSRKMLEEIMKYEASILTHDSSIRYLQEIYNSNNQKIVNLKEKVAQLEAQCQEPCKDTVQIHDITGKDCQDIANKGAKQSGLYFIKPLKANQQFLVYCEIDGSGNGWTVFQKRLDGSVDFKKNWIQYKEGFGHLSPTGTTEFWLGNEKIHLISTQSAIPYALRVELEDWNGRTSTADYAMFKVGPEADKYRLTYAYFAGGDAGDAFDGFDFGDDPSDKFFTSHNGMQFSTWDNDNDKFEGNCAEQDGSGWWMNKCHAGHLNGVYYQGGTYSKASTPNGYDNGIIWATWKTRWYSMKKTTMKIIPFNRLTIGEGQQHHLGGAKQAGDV

[2] = target: T2, Fg D-fragment (UniProt P02671 130-216; P02675 164-491; P02679 114-437); test: SPR; immobilized Fg D-fragment against γ-peptide
T2 construct: domain: D-fragment; also called D-domain
T2 sequence 1: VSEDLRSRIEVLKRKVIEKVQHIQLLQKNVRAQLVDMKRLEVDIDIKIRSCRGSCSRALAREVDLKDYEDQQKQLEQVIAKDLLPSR
T2 sequence 2: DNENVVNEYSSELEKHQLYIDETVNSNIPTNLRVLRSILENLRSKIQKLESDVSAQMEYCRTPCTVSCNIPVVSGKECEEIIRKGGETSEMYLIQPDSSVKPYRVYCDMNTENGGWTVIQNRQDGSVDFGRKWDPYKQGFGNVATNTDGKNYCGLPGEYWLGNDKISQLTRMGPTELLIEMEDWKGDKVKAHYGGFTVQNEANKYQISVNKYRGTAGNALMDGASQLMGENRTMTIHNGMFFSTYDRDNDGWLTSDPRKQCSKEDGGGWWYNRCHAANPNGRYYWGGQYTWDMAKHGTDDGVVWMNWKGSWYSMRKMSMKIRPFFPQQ
T2 sequence 3: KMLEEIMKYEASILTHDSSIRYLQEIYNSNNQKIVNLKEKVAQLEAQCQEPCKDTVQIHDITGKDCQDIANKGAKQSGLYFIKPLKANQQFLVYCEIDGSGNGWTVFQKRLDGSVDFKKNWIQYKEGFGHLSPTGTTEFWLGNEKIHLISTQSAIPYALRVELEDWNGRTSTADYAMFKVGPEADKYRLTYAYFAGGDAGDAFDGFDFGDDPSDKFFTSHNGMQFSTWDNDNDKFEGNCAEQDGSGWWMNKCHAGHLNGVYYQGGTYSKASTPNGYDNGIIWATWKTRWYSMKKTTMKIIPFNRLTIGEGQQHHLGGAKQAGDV

[3] = target: T1, human fibrinogen; test: SPR (Biacore), drawn table Ligand/analyte: fibrinogen immobilized, ClfA N3 domain (ClfA370-559) as analyte
[4] = target: T2, Fg D-fragment; test: SPR (Biacore), drawn table Ligand/analyte: Fg D-fragment immobilized, ClfA N3 domain (ClfA370-559) as analyte
[5] = target: T1, human fibrinogen; test: SPR; immobilized Fg; estimated; SPR, Fg, estimated, data not shown
[6] = target: B4; test: ITC, 0.5 mM P16 peptide injected into 30 µM ClfAPWY; OneSites fit box
[7] = target: T2, Fg D-fragment; test: SPR; immobilized D-fragment; estimated; SPR, D-fragment, estimated, data not shown
[8] = target: B4; test: ITC, 0.5 mM P16 peptide injected into 30 µM ClfAPWY; OneSites fit box, unit not given
[9] = target: T3, ClfACC (S. aureus, UniProt Q53653 229-545, engineered disulfide bond between C327 and C541); test: ITC; peptide titrated into a cell containing ClfACC; the unit is missing in the print; γ-chain peptide titrated into ClfACC
T3 construct: also called disulfide bond-closed ClfACC; closed form of ClfA N2N3
T3 sequence: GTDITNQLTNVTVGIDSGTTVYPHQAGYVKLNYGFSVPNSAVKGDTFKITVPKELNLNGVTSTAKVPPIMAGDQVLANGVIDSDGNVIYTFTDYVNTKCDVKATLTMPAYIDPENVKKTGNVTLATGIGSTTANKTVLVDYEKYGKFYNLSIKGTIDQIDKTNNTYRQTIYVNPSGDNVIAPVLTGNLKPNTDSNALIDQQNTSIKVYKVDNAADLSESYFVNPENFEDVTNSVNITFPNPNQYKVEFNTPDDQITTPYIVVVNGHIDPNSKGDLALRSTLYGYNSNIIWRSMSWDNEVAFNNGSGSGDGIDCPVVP

[10] = target: B2; test: ITC; 0.5 mM P16 injected into 30 µM ClfAPWY, 30 °C; ITC, P16 peptide
[11] = target: T3, ClfACC; test: ITC, peptide titrated into ClfACC (paragraph 56 gives this KD as '9' without a unit and calls the peptide a synthetic C-terminal γ-chain peptide; the sheet names it P16)

B1: ClfA370-559 (other)
chain: EKYGKFYNLSIKGTIDQIDKTNNTYRQTIYVNPSGDNVIAPVLTGNLKPNTDSNALIDQQNTSIKVYKVDNAADLSESYFVNPENFEDVTNSVNITFPNPNQYKVEFNTPDDQITTPYIVVVNGHIDPNSKGDLALRSTLYGYNSNIIWRSMSWDNEVAFNNGSGSGDGIDKPVVPEQPDEPGEIEPIPE
notes: also called recombinant form of N3
**Q.** How did the “fold lower KD than for the γ-peptide” value [1] turn out when B1 was run?
**A.** Its value is ~10 fold.

**Q.** What about the “fold lower KD than for the γ-peptide” value [2] of the same binder?
**A.** The value was ~10 fold.

**Q.** What about the Kd [3] of the same binder?
**A.** Its Kd is 5.9 µM.

**Q.** And the Kd [4]?
**A.** Its Kd is 6.9 µM.

**Q.** For B2, which Kd [5] is on record?
**A.** The Kd was 10 µM.

**Q.** And the N [6]?
**A.** The N was 1.23.

**Q.** And the Kd [7]?
**A.** Its Kd is 17 µM.

**Q.** And the ΔH [8]?
**A.** Its ΔH is -6790.

**Q.** And the ΔS [8]?
**A.** The ΔS was 1.59.

B3: synthetic C-terminal γ-chain peptide (peptide)
peptide: GEGQQHHLGGAKQAGDV
notes: domain: C-terminal γ-chain peptide; also called Fg γ-peptide; synthetic Fg γ-peptide
**Q.** With B3 as the binder, how does the Kd [9] read?
**A.** The Kd was 9 µM.

**Q.** With B4 as the binder, how does the Kd [10] read?
**A.** The Kd was ~5.8 µM.

**Q.** What about the Kd [11] of the same binder?
**A.** Its Kd is 9 µM.
